In PMC7498313, “The Sac10b homolog from Sulfolobus islandicus is an RNA chaperone” one finds binding result and Kd data, which are given here for two molecules.

For data set [1], the target named is T1, Sis10b K17A (Sulfolobus islandicus REY15A, UniProt F0NHH1 1-97, K17A).
T1 sequence: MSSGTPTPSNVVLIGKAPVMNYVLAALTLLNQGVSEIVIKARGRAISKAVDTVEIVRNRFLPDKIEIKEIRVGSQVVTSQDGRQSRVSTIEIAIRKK
The data set can be described thus: EMSA; 55°C; no ssRNA preference over dsRNA; EMSA: 20 mM HEPES-NaOH pH 7.0, 1 mM DTT, 100 ug/ml BSA, 6% glycerol, 30 min at 25, 37 or 55°C; gel in 0.5x TBE at the same temperature. The following applies: protein: recombinant; tags: none; chain copies: 2; label: 5' 32P; single strand.

Data set [2] concerns the target T2, Sis10b K17R (Sulfolobus islandicus REY15A, UniProt F0NHH1 1-97, K17R).
T2 sequence: T1 sequence with A17R
The data set can be described thus: EMSA; 37°C; slightly weaker than dsRNA; EMSA: 20 mM HEPES-NaOH pH 7.0, 1 mM DTT, 100 ug/ml BSA, 6% glycerol, 30 min at 25, 37 or 55°C; gel in 0.5x TBE at the same temperature. As to conditions: protein: recombinant; tags: none; chain copies: 2; label: 5' 32P; single strand. Background: In EMSA bound probe runs differently from free probe, usually more slowly.

The target in data set [3] is T3, Sis10b K16A (Sulfolobus islandicus REY15A, UniProt F0NHH1 1-97, K16A).
T3 sequence: T1 sequence with K16A, A17K
The description is as above. The following applies: protein: recombinant; tags: none; chain copies: 2; label: 5' 32P; single strand.

Data set [4] concerns the target T3, Sis10b K16A. Kind of data set: EMSA; 37°C; 1.1-1.7-fold better than ssRNA; EMSA: 20 mM HEPES-NaOH pH 7.0, 1 mM DTT, 100 ug/ml BSA, 6% glycerol, 30 min at 25, 37 or 55°C; gel in 0.5x TBE at the same temperature. As to conditions: protein: recombinant; tags: none; chain copies: 2; label: 5' 32P on top strand; blunt.
In data set [5] the target is T1, Sis10b K17A. The data set is described as above. The following applies: protein: recombinant; tags: none; chain copies: 2; label: 5' 32P on top strand; blunt.
In data set [6] the target is T4, Sis10b M20E/L24E/L27E/F60E (Sulfolobus islandicus REY15A, UniProt F0NHH1 1-97, M20E;L24E;L27E;F60E).
T4 sequence: T1 sequence with A17K, M20E, L24E, L27E, F60E
The data set can be described thus: EMSA; 55°C; EMSA: 20 mM HEPES-NaOH pH 7.0, 1 mM DTT, 100 ug/ml BSA, 6% glycerol, 30 min at 25, 37 or 55°C; gel in 0.5x TBE at the same temperature. As to conditions: protein: recombinant; tags: none; chain copies: 2; label: 5' 32P on top strand; blunt.

Data set [7] has as its target T2, Sis10b K17R. Described as above. As to conditions: protein: recombinant; tags: none; chain copies: 2; label: 5' 32P on top strand; blunt.
The target in a further data set is T5, Sis10b ΔN12 (Sulfolobus islandicus REY15A, UniProt F0NHH1 13-97, del1-12).
T5 sequence: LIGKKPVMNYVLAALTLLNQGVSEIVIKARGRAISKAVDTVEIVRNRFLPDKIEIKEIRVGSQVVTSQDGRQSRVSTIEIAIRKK
The data set is described as above. As to conditions: protein: recombinant; tags: none; chain copies: 2; label: 5' 32P on top strand; blunt.

Changes are numbered by the printed parent chain.

As for UGACUUCCGCGCGUGAGCUCGAUUCCACAUACCCUAAAUCGCUC (ssRNA) [44-nt ssRNA (t)], the binding result with Sis10b K17A [1], in the data set with Sis10b K17R [2] and with Sis10b K16A [3] was “binds” throughout.

B1: 44-bp dsRNA (dsRNA)
RNA 1: UGACUUCCGCGCGUGAGCUCGAUUCCACAUACCCUAAAUCGCUC
RNA 2: GAGCGAUUUAGGGUAUGUGGAAUCGAGCUCACGCGCGGAAGUCA
With B1, the binding result in the data set with Sis10b K16A [4] and in the data set with Sis10b K17A [5] was “binds” throughout. For the same molecule, the values for the dissociation constant Kd (in data set [6]; with Sis10b K17R [7]; in the data set with Sis10b ΔN12) were roughly 82.3 nM, roughly 28.2 nM and roughly 98.1 nM, respectively.

For orientation: Kd means the constant that tells how readily two partners part at equilibrium.
